Substrate in data set [1]: C[C@H](OP(=O)(O)O)[C@H]1OC(n2cnc3c(N)ncnc32)[C@H](O)[C@@H]1O
Nature of the data set: (§1) Concentration of compound for half-maximal velocity to Adenylate kinase M isoenzyme.

Substrate in data set [2]: Nc1ncnc2c1ncn2[C@@H]1O[C@H](/C=C/P(=O)(O)O)[C@@H](O)[C@H]1O
Described as §1.

Substrate in data set [3]: CN(C)c1nc(N)c2ncn(C3O[C@H](COP(=O)(O)O)[C@@H](O)[C@H]3O)c2n1
The description is as §1.

Substrate in data set [4]: Nc1nc(N)c2ncn([C@@H]3O[C@H](COP(=O)(O)O)[C@@H](O)[C@H]3O)c2n1
The data set is described as §1.

Substrate in data set [5]: CNc1nc(N)c2ncn([C@@H]3O[C@H](COP(=O)(O)O)[C@@H](O)[C@H]3O)c2n1
The data set is described as §1.

Substrate in data set [6]: CCNc1nc(N)c2ncn([C@@H]3O[C@H](COP(=O)(O)O)[C@@H](O)[C@H]3O)c2n1
Described as §1.

Substrate in data set [7]: Nc1ncnc2c1ncn2[C@@H]1O[C@H](COP(=O)(O)O)[C@@H](O)[C@H]1O
Described as §1.

Substrate in data set [8]: Nc1nc(Cl)nc2c1ncn2[C@@H]1O[C@H](COP(=O)(O)O)[C@@H](O)[C@H]1O
Described as §1.

Substrate in data set [9]: C[C@@H]1[C@H](O)[C@@H](COP(=O)(O)O)O[C@H]1n1cnc2c(N)ncnc21
The description is as §1.

Substrate in data set [10]: Nc1ncnc2c1ncn2[C@@H]1O[C@H](CCP(=O)(O)O)[C@@H](O)[C@H]1O
The description is as §1.

Substrate in data set [11]: C[C@H](OP(=O)(O)O)[C@H]1OC(n2cnc3c(N)ncnc32)[C@H](O)[C@@H]1O
Nature of the data set: (§2) Concentration for half-maximal velocity to Adenylate kinase III.

Substrate in data set [12]: Nc1ncnc2c1ncn2[C@@H]1O[C@H](/C=C/P(=O)(O)O)[C@@H](O)[C@H]1O
The description is as §2.

Substrate in data set [13]: Nc1nc(N)c2ncn([C@@H]3O[C@H](COP(=O)(O)O)[C@@H](O)[C@H]3O)c2n1
The data set is described as §2.

Substrate in data set [14]: CNc1nc(N)c2ncn([C@@H]3O[C@H](COP(=O)(O)O)[C@@H](O)[C@H]3O)c2n1
Described as §2.

Substrate in data set [15]: CCNc1nc(N)c2ncn([C@@H]3O[C@H](COP(=O)(O)O)[C@@H](O)[C@H]3O)c2n1
The description is as §2.

Substrate in data set [16]: Nc1ncnc2c1ncn2[C@@H]1O[C@H](COP(=O)(O)O)[C@@H](O)[C@H]1O
The description is as §2.

Substrate in data set [17]: Nc1nc(Cl)nc2c1ncn2[C@@H]1O[C@H](COP(=O)(O)O)[C@@H](O)[C@H]1O
The description is as §2.

Substrate in data set [18]: C[C@@H]1[C@H](O)[C@@H](COP(=O)(O)O)O[C@H]1n1cnc2c(N)ncnc21
Described as §2.

Substrate in data set [19]: Nc1ncnc2c1ncn2[C@@H]1O[C@H](CCP(=O)(O)O)[C@@H](O)[C@H]1O
Described as §2.

Substrate in data set [20]: CCC[C@H](OP(=O)(O)O)[C@H]1OC(n2cnc3c(N)ncnc32)[C@H](O)[C@@H]1O
Described as §2.

Usually Km stands for the concentration of substrate that gives half-maximal velocity.

B1: Adenylate kinase isoenzyme 1 (Rattus norvegicus), P39069 (protein)
chain: MEDKLKKAKIIFVVGGPGSGKGTQCEKIVQKYGYTHLSTGDLLRAEVSSGSSRGKMLSSIMEKGELVPLETVLDMLRDAMLAKVDSSNGFLIDGYPREVKQGEEFERKIAQPTLLLYVDAGPETMTQRLLKRGETSGRVDDNEETIKKRLETYYKATEPVISFYDKRGIVRKVNAEGSVDTVFSQVCTYLDSLK
In the case of B1, the Km is 2000 µM in data set [1]; 2000 µM in [2]; 7500 µM in data set [3]; 3500 µM in data set [4]; 2900 µM in data set [5]; 4200 µM in data set [6]. Also, the Km in data set [7] came out at 580 µM; in [8], 2700 µM; in data set [9] it was 5500 µM; in [10], 4200 µM.

B2: GTP:AMP phosphotransferase AK3, mitochondrial (Rattus norvegicus), P29411 (protein)
chain: MGASGRLLRAVIMGAPGSGKGTGSSRITKHFELKHLSSGDLLRQNMLQGTEIAVLAKSFIDQGKLIPDDDMTRLALHELKNLTQCSWLLDGFPRTLPQAEALDRVYQIDTVINLNVPFEVIKLRLTARWIHPASGRVYNIEFNPPKTVGIDDLTGEPLIQREDDKPETVIKRLKAYEAQTEPVLQYYQKKGVLETFSGTETNKIRPHVYSFLQMKVPETIQKASVTP
As to B2, the Km is 1100 µM in data set [11]; 1400 µM in [12]; 1900 µM in data set [13]; 3700 µM in data set [14]; 5400 µM in data set [15]; 80 µM in [16]. For the same protein, the Km in [17] was 1600 µM; in data set [18], 790 µM; in data set [19], 2200 µM; in data set [20] it was 830 µM.

For the origin of these results see ChEMBL document CHEMBL1122090, “Species- or isozyme-specific enzyme inhibitors. 7. Selective effects in inhibitions of rat adenylate kinase isozymes by adenosine 5'-phosphate derivatives” (J Med Chem, 1982).
